We go through 57 substances from the Human Domainome abundance scans (Beltran et al. 2025).

± gives the uncertainty stated by the source.

This series is described as follows: abundance fitness (aPCA) (normalised: wild type 0, dead -1); higher = more abundant; growth selection in yeast, the domain comes from the species named. To be noted: Homo sapiens.
The substance “NEDD4-like E3 ubiquitin-protein ligase WWP2 P448A, O00308” came in with an abundance fitness of 0.008 ± 0.044.

With “NEDD4-like E3 ubiquitin-protein ligase WWP2 P448C, O00308”, the abundance fitness was -0.216 ± 0.074.

The substance “NEDD4-like E3 ubiquitin-protein ligase WWP2 P448D, O00308” had an abundance fitness of 0.09 ± 0.059.

“NEDD4-like E3 ubiquitin-protein ligase WWP2 P448E, O00308” yielded an abundance fitness of 0.045 ± 0.062.

In the case of “NEDD4-like E3 ubiquitin-protein ligase WWP2 P448F, O00308”, the abundance fitness amounted to 0.015 ± 0.04.

For the substance “NEDD4-like E3 ubiquitin-protein ligase WWP2 P448G, O00308”, the abundance fitness is -0.046 ± 0.054.

“NEDD4-like E3 ubiquitin-protein ligase WWP2 P448H, O00308” yielded an abundance fitness of 0.043 ± 0.046.

As to “NEDD4-like E3 ubiquitin-protein ligase WWP2 P448I, O00308”, the abundance fitness was -0.13 ± 0.071.

“NEDD4-like E3 ubiquitin-protein ligase WWP2 P448K, O00308” displayed an abundance fitness of 0.108 ± 0.067.

Substance “NEDD4-like E3 ubiquitin-protein ligase WWP2 P448L, O00308” showed an abundance fitness of -0.013 ± 0.038.

In turn, “NEDD4-like E3 ubiquitin-protein ligase WWP2 P448M, O00308” gave an abundance fitness of 0.088 ± 0.068.

In turn, “NEDD4-like E3 ubiquitin-protein ligase WWP2 P448N, O00308” had an abundance fitness of 0.071 ± 0.072.

As for “NEDD4-like E3 ubiquitin-protein ligase WWP2 P448Q, O00308”, the abundance fitness amounted to 0.029 ± 0.054.

“NEDD4-like E3 ubiquitin-protein ligase WWP2 P448R, O00308” returned an abundance fitness of -0.033 ± 0.047.

Turning to “NEDD4-like E3 ubiquitin-protein ligase WWP2 P448S, O00308”, the abundance fitness is -0.001 ± 0.037.

In the case of “NEDD4-like E3 ubiquitin-protein ligase WWP2 P448T, O00308”, the abundance fitness came out at 0.001 ± 0.05.

For “NEDD4-like E3 ubiquitin-protein ligase WWP2 P448V, O00308”, the abundance fitness was found to be 0.023 ± 0.055.

“NEDD4-like E3 ubiquitin-protein ligase WWP2 P448W, O00308” returned an abundance fitness of -0.109 ± 0.062.

Substance “NEDD4-like E3 ubiquitin-protein ligase WWP2 P448Y, O00308” came in with an abundance fitness of -0.149 ± 0.056.

“NEDD4-like E3 ubiquitin-protein ligase WWP2 P475A, O00308” had an abundance fitness of -0.837 ± 0.037.

Regarding “NEDD4-like E3 ubiquitin-protein ligase WWP2 P475C, O00308”, the abundance fitness is -1.06 ± 0.16.

“NEDD4-like E3 ubiquitin-protein ligase WWP2 P475D, O00308” returned an abundance fitness of -0.867 ± 0.14.

The substance “NEDD4-like E3 ubiquitin-protein ligase WWP2 P475E, O00308” yielded an abundance fitness of -0.785 ± 0.15.

In the case of “NEDD4-like E3 ubiquitin-protein ligase WWP2 P475F, O00308”, the abundance fitness is -0.88 ± 0.1.

Regarding “NEDD4-like E3 ubiquitin-protein ligase WWP2 P475G, O00308”, the abundance fitness was -1 ± 0.042.

Regarding “NEDD4-like E3 ubiquitin-protein ligase WWP2 P475H, O00308”, the abundance fitness is -0.813 ± 0.15.

Substance “NEDD4-like E3 ubiquitin-protein ligase WWP2 P475I, O00308” gave an abundance fitness of -0.523 ± 0.11.

Take “NEDD4-like E3 ubiquitin-protein ligase WWP2 P475K, O00308”: the abundance fitness is -1.24 ± 0.27.

In turn, “NEDD4-like E3 ubiquitin-protein ligase WWP2 P475L, O00308” gave an abundance fitness of -0.876 ± 0.04.

Substance “NEDD4-like E3 ubiquitin-protein ligase WWP2 P475M, O00308” registered an abundance fitness of -0.574 ± 0.062.

For “NEDD4-like E3 ubiquitin-protein ligase WWP2 P475N, O00308”, the abundance fitness is -0.941 ± 0.13.

Turning to “NEDD4-like E3 ubiquitin-protein ligase WWP2 P475Q, O00308”, the abundance fitness is -0.836 ± 0.11.

“NEDD4-like E3 ubiquitin-protein ligase WWP2 P475R, O00308” came in with an abundance fitness of -0.933 ± 0.041.

Substance “NEDD4-like E3 ubiquitin-protein ligase WWP2 P475S, O00308” registered an abundance fitness of -0.852 ± 0.054.

“NEDD4-like E3 ubiquitin-protein ligase WWP2 P475T, O00308” had an abundance fitness of -1.36 ± 0.2.

With “NEDD4-like E3 ubiquitin-protein ligase WWP2 P475V, O00308”, the abundance fitness was -0.631 ± 0.038.

Take “NEDD4-like E3 ubiquitin-protein ligase WWP2 P475W, O00308”: the abundance fitness is -0.829 ± 0.067.

For “NEDD4-like E3 ubiquitin-protein ligase WWP2 P475Y, O00308”, the abundance fitness is -0.984 ± 0.15.

Substance “NEDD4-like E3 ubiquitin-protein ligase WWP2 P477A, O00308” showed an abundance fitness of 0.076 ± 0.052.

As to “NEDD4-like E3 ubiquitin-protein ligase WWP2 P477C, O00308”, the abundance fitness was -0.084 ± 0.066.

Substance “NEDD4-like E3 ubiquitin-protein ligase WWP2 P477D, O00308” had an abundance fitness of -0.009 ± 0.059.

Turning to “NEDD4-like E3 ubiquitin-protein ligase WWP2 P477E, O00308”, the abundance fitness turned out to be 0.001 ± 0.05.

In the case of “NEDD4-like E3 ubiquitin-protein ligase WWP2 P477F, O00308”, the abundance fitness was -0.091 ± 0.073.

“NEDD4-like E3 ubiquitin-protein ligase WWP2 P477G, O00308” had an abundance fitness of -0.019 ± 0.031.

Consider “NEDD4-like E3 ubiquitin-protein ligase WWP2 P477I, O00308”, for which the abundance fitness came out at 0.13 ± 0.075.

The substance “NEDD4-like E3 ubiquitin-protein ligase WWP2 P477K, O00308” had an abundance fitness of -0.037 ± 0.052.

In turn, “NEDD4-like E3 ubiquitin-protein ligase WWP2 P477L, O00308” yielded an abundance fitness of -0.038 ± 0.034.

The substance “NEDD4-like E3 ubiquitin-protein ligase WWP2 P477M, O00308” displayed an abundance fitness of -0.011 ± 0.05.

Turning to “NEDD4-like E3 ubiquitin-protein ligase WWP2 P477N, O00308”, the abundance fitness was -0.081 ± 0.053.

“NEDD4-like E3 ubiquitin-protein ligase WWP2 P477Q, O00308” returned an abundance fitness of -0.394 ± 0.1.

“NEDD4-like E3 ubiquitin-protein ligase WWP2 P477S, O00308” yielded an abundance fitness of -0.02 ± 0.037.

For “NEDD4-like E3 ubiquitin-protein ligase WWP2 P477T, O00308”, the abundance fitness was -0.215 ± 0.068.

With “NEDD4-like E3 ubiquitin-protein ligase WWP2 P477V, O00308”, the abundance fitness was 0.037 ± 0.034.

Turning to “NEDD4-like E3 ubiquitin-protein ligase WWP2 P477W, O00308”, the abundance fitness was -0.138 ± 0.048.

As for “NEDD4-like E3 ubiquitin-protein ligase WWP2 P477Y, O00308”, the abundance fitness is -0.145 ± 0.063.

The substance “NEDD4-like E3 ubiquitin-protein ligase WWP2 P488A, O00308” had an abundance fitness of -0.31 ± 0.037.

As for “NEDD4-like E3 ubiquitin-protein ligase WWP2 P488C, O00308”, the abundance fitness is -0.049 ± 0.058.
